Bounds are passed on as bounds.

Holding throughout (assay): cell-based or functional assay
Experiment [1] concerns the target T1, CD374 PV1-RfxCas13d-560C-NLS-BGHpA.
T1 sequence: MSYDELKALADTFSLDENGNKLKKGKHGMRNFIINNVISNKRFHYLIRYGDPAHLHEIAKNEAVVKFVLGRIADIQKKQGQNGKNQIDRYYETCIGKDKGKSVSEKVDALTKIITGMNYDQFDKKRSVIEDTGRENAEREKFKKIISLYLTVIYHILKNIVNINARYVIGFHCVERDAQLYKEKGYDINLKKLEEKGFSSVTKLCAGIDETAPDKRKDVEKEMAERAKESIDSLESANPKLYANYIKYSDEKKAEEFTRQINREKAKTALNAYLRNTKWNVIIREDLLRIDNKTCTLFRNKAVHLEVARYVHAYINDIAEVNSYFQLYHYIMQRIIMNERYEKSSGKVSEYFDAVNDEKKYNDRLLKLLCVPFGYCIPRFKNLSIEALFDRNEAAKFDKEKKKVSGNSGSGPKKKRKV

Experiment [2] has as its target CD92 PV1-CaffVHH-L1-iCre-271C-NLS-BGHpA.
In experiment [3] the target is T2, CD246 PV1-GAI-L1-RfxCas13d-566C-NLS-BGHpA.
T2 sequence: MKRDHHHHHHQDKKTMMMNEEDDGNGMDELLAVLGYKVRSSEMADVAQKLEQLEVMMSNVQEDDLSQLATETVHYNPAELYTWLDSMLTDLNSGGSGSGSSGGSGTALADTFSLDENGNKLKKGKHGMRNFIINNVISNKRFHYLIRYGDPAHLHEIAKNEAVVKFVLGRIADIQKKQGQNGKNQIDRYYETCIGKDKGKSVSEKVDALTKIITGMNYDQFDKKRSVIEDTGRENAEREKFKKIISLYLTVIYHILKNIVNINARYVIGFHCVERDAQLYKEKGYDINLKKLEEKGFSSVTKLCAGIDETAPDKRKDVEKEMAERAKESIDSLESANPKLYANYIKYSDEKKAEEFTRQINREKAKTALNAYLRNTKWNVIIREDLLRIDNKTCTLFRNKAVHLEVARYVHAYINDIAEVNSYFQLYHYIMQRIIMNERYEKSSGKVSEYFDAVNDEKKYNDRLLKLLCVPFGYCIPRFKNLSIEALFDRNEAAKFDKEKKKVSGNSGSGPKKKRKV

Experiment [4] has as its target CD176 PV1-tandem CaffVHH-L1-iCre-271C-NLS-BGHpA.
Experiment [5] deals with T3, CD244 PV1-GAI-L1-RfxCas13d-560C-NLS-BGHpA.
T3 sequence: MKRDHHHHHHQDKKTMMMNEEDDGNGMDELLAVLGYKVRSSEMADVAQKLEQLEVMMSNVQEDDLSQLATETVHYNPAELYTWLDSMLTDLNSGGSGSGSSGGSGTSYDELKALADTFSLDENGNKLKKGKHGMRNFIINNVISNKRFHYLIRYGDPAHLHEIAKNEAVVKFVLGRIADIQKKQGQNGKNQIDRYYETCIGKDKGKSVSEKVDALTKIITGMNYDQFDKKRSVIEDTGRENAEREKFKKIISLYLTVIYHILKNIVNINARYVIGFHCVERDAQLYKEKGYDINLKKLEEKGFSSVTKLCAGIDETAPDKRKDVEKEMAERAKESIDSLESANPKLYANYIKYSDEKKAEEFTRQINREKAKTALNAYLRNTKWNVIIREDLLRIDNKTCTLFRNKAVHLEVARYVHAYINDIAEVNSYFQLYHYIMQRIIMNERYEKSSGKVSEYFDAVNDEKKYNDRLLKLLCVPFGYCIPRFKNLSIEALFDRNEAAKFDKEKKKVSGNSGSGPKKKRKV

Chain of CD92 PV1-CaffVHH-L1-iCre-271C-NLS-BGHpA (chain, as listed by the source): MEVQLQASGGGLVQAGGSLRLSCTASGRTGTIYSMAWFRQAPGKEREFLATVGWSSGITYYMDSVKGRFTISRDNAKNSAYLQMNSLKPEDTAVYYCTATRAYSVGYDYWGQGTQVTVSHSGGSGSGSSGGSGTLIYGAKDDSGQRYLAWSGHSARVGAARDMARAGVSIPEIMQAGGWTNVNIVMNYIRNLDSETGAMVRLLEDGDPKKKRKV
Chain of CD176 PV1-tandem CaffVHH-L1-iCre-271C-NLS-BGHpA (chain, as listed by the source): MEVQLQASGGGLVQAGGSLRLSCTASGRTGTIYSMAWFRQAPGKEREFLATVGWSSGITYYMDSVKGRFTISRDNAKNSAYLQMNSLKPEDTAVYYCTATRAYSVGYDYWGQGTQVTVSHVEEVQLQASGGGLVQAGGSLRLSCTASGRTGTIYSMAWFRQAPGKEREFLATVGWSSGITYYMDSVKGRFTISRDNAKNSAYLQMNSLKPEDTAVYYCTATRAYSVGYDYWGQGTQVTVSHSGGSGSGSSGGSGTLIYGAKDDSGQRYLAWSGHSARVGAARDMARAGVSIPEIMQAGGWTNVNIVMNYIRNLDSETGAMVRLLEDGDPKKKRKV

B1: CD373 PV1-RfxCas13d-N559-NLS-BGHpA (protein)
chain: MIEKKKSFAKGMGVKSTLVSGSKVYMTTFAEGSDARLEKIVEGDSIRSVNEGEAFSAEMADKNAGYKIGNAKFSHPKGYAVVANNPLYTGPVQQDMLGLKETLEKRYFGESADGNDNICIQVIHNILDIEKILAEYITNAAYAVNNISGLDKDIIGFGKFSTVYTYDEFKDPEHHRAAFNNNDKLINAIKAQYDEFDNFLDNPRLGYFGQAFFSKEGRNYIINYGNECYDILALLSGLRHWVVHNNEEESRISRTWLYNLDKNLDNEYISTLNYLYDRITNELTNSFSKNSAANVNYIAETLGINPAEFAEQYFRFSIMKEQKNLGFNITKLREVMLDRKDMSEIRKNHKVFDSIRTKVYTMMDFVIYRYYIEEDAKVAAANKSLPDNEKSLSEKDIFVINLRGSFNDDQKDALYYDEANRIWRKLENIMHNIKEFRGNKTREYKKKDAPRLPRILPAGRDVSAFSKLMYALTMFLDGKEINDLLTTLINKFDNIQSFLKVMPLIGVNAKFVEEYAFFKDSAKIADELRLIKSFARMGEPIADARRAMYIDAIRILGTNLPKKKRKV
B1 yielded a gRNA induced knockdown of mCherry without CID domains in experiment [1] of less than 80%.

B2: CD91 PV1-iCre-N270-L1-CaffVHH-NLS-BGHpA (protein)
chain: MSNLLTVHQNLPALPVDATSDEVRKNLMDMFRDRQAFSEHTWKMLLSVCRSWAAWCKLNNRKWFPAEPEDVRDYLLYLQARGLAVKTIQQHLGQLNMLHRRSGLPRPSDSNAVSLVMRRIRKENVDAGERAKQALAFERTDFDQVRSLMENSDRCQDIRNLAFLGIAYNTLLRIAEIARIRVKDISRTDGGRMLIHIGRTKTLVSTAGVEKALSLGVTKLVERWISVSGVADDPNNYLFCRVRKNGVAAPSATSQLSTRALEGIFEATHRSGGSGSGSSGGSGTMEVQLQASGGGLVQAGGSLRLSCTASGRTGTIYSMAWFRQAPGKEREFLATVGWSSGITYYMDSVKGRFTISRDNAKNSAYLQMNSLKPEDTAVYYCTATRAYSVGYDYWGQGTQVTVSHPKKKRKV
In experiment [2], B2 displayed a Cre reporter expression, share of transfected cells, 25 uM caffeine for 5 hours (% of transfected cells) of 30; a Cre reporter turned on, share of transfected cells, caffeine at least 50 uM, induction at least 5 hours (% of transfected cells) of 38; a Cre reporter turned on, share of transfected cells, with caffeine, 48 hours (% of transfected cells) of more than 80; a caffeine concentration able to turn on Cre activity and generate reporter expression in 48 hours of 0.1 µM caffeine. Moreover, the caffeine concentration at which similar, if not less, recombination efficiency was reached (single CaffVHH) in experiment [2] is 500 µM caffeine.

B3: CD245 PV1-RfxCas13d-N565-L1-GID-NLS-BGHpA (protein)
chain: MIEKKKSFAKGMGVKSTLVSGSKVYMTTFAEGSDARLEKIVEGDSIRSVNEGEAFSAEMADKNAGYKIGNAKFSHPKGYAVVANNPLYTGPVQQDMLGLKETLEKRYFGESADGNDNICIQVIHNILDIEKILAEYITNAAYAVNNISGLDKDIIGFGKFSTVYTYDEFKDPEHHRAAFNNNDKLINAIKAQYDEFDNFLDNPRLGYFGQAFFSKEGRNYIINYGNECYDILALLSGLRHWVVHNNEEESRISRTWLYNLDKNLDNEYISTLNYLYDRITNELTNSFSKNSAANVNYIAETLGINPAEFAEQYFRFSIMKEQKNLGFNITKLREVMLDRKDMSEIRKNHKVFDSIRTKVYTMMDFVIYRYYIEEDAKVAAANKSLPDNEKSLSEKDIFVINLRGSFNDDQKDALYYDEANRIWRKLENIMHNIKEFRGNKTREYKKKDAPRLPRILPAGRDVSAFSKLMYALTMFLDGKEINDLLTTLINKFDNIQSFLKVMPLIGVNAKFVEEYAFFKDSAKIADELRLIKSFARMGEPIADARRAMYIDAIRILGTNLSYDELKSGGSGSGSSGGSGTMAASDEVNLIESRTVVPLNTWVLISNFKVAYNILRRPDGTFNRHLAEYLDRKVTANANPVDGVFSFDVLIDRRINLLSRVYRPAYADQEQPPSILDLEKPVDGDIVPVILFFHGGSFAHSSANSAIYDTLCRRLVGLCKCVVVSVNYRRAPENPYPCAYDDGWIALNWVNSRSWLKSKKDSKVHIFLAGDSSGGNIAHNVALRAGESGIDVLGNILLNPMFGGNERTESEKSLDGKYFVTVRDRDWYWKAFLPEGEDREHPACNPFSPRGKSLEGVSFPKSLVVVAGLDLIRDWQLAYAEGLKKAGQEVKLMHLEKATVGFYLLPNNNHFHNVMDEISAFVNAECPKKKRKV
For the molecule B3, in experiment [3], the basal knockdown of mCherry induced by gRNA, no gibberellin is 10 to 20% and the drug-induced knockdown of mCherry with gRNA was more than 75%.

B4: CD175 PV1-iCre-N270-L1-tandem CaffVHH-NLS-BGHpA (protein)
chain: MSNLLTVHQNLPALPVDATSDEVRKNLMDMFRDRQAFSEHTWKMLLSVCRSWAAWCKLNNRKWFPAEPEDVRDYLLYLQARGLAVKTIQQHLGQLNMLHRRSGLPRPSDSNAVSLVMRRIRKENVDAGERAKQALAFERTDFDQVRSLMENSDRCQDIRNLAFLGIAYNTLLRIAEIARIRVKDISRTDGGRMLIHIGRTKTLVSTAGVEKALSLGVTKLVERWISVSGVADDPNNYLFCRVRKNGVAAPSATSQLSTRALEGIFEATHRSGGSGSGSSGGSGTMEVQLQASGGGLVQAGGSLRLSCTASGRTGTIYSMAWFRQAPGKEREFLATVGWSSGITYYMDSVKGRFTISRDNAKNSAYLQMNSLKPEDTAVYYCTATRAYSVGYDYWGQGTQVTVSHVEEVQLQASGGGLVQAGGSLRLSCTASGRTGTIYSMAWFRQAPGKEREFLATVGWSSGITYYMDSVKGRFTISRDNAKNSAYLQMNSLKPEDTAVYYCTATRAYSVGYDYWGQGTQVTVSHPKKKRKV
On to B4, for which, in experiment [4], the caffeine concentration at maximum recombination efficiency turned out to be 20 µM caffeine and the recombination against the single CaffVHH version, same induction conditions was less than 13 fold.

B5: CD243 PV1-RfxCas13d-N559-L1-GID-NLS-BGHpA (protein)
chain: MIEKKKSFAKGMGVKSTLVSGSKVYMTTFAEGSDARLEKIVEGDSIRSVNEGEAFSAEMADKNAGYKIGNAKFSHPKGYAVVANNPLYTGPVQQDMLGLKETLEKRYFGESADGNDNICIQVIHNILDIEKILAEYITNAAYAVNNISGLDKDIIGFGKFSTVYTYDEFKDPEHHRAAFNNNDKLINAIKAQYDEFDNFLDNPRLGYFGQAFFSKEGRNYIINYGNECYDILALLSGLRHWVVHNNEEESRISRTWLYNLDKNLDNEYISTLNYLYDRITNELTNSFSKNSAANVNYIAETLGINPAEFAEQYFRFSIMKEQKNLGFNITKLREVMLDRKDMSEIRKNHKVFDSIRTKVYTMMDFVIYRYYIEEDAKVAAANKSLPDNEKSLSEKDIFVINLRGSFNDDQKDALYYDEANRIWRKLENIMHNIKEFRGNKTREYKKKDAPRLPRILPAGRDVSAFSKLMYALTMFLDGKEINDLLTTLINKFDNIQSFLKVMPLIGVNAKFVEEYAFFKDSAKIADELRLIKSFARMGEPIADARRAMYIDAIRILGTNLSGGSGSGSSGGSGTMAASDEVNLIESRTVVPLNTWVLISNFKVAYNILRRPDGTFNRHLAEYLDRKVTANANPVDGVFSFDVLIDRRINLLSRVYRPAYADQEQPPSILDLEKPVDGDIVPVILFFHGGSFAHSSANSAIYDTLCRRLVGLCKCVVVSVNYRRAPENPYPCAYDDGWIALNWVNSRSWLKSKKDSKVHIFLAGDSSGGNIAHNVALRAGESGIDVLGNILLNPMFGGNERTESEKSLDGKYFVTVRDRDWYWKAFLPEGEDREHPACNPFSPRGKSLEGVSFPKSLVVVAGLDLIRDWQLAYAEGLKKAGQEVKLMHLEKATVGFYLLPNNNHFHNVMDEISAFVNAECPKKKRKV
In experiment [5], B5 yielded a basal knockdown of mCherry induced by gRNA, no gibberellin of 10 to 20% and a drug-induced knockdown of mCherry with gRNA of more than 75%.
